The source of these data is US20220401557A1 (Chugai, published 2022).

The target in this assay is CD3 on NFAT-RE-luc2-Jurkat cells (human, UniProt P07766 23-207). As to the kind of experiment: cell-based or functional assay.
CD3 on NFAT-RE-luc2-Jurkat cells, sequence (P07766 23-207): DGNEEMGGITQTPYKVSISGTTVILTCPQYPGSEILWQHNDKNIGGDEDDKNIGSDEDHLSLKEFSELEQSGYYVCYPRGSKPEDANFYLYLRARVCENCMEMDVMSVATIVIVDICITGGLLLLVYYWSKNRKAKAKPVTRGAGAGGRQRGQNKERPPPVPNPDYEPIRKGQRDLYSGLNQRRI

B1: rCE115/rCE115GS//GCH065 (bispecific antibody, human IgG1, kappa, N297A)
heavy 1: EVQLVETGGSLVQPGKSLKLTCATSGFTFSNAWMHWVRQSPEKQLEWVAQIKAKSNNYATYYAESVKGRFTISRDDSKSNIYLQMNSLKEEDTAVYYCRYVHYGAYYGVDAWGQGTSVTVSSASTKGPSVFPLAPSSKSTSGGTAALGCLVKDYFPEPVTVSWNSGALTSGVHTFPAVLQSSGLYSLSSVVTVPSSSLGTQTYICNVNHKPSNTKVDKKVEPKSCDKTHTCPPCPAPELRGGPKVFLFPPKPKDTLMISRTPEVTCVVVDVSHEDPEVKFNWYVDGVEVHNAKTKPREEQYASTYRVVSVLTVLHQDWLNGKEYKCKVSNKALPAPIEKTISKAKGQPREPQVYTLPPSRKEMTKNQVSLTCLVKGFYPSDIAVEWESNGQPENNYKTTPPYLDSDGSFFLYSKLTVDKSRWQQGNVFSCSVMHEALHNHYTQKSLSLSP
light 1: QDGNEGGGSGGGSGGGSDVVMTQTPVSMSVSLGGQVSISCRSSQSLVHNNGNTYVSWYIQKPSQSPQLLIYKVSNRFSGISDRFSGSGSGTDFTLKISRVEPDDLGVYYCGQGTQDPYTFGAGTKLELKRTVAAPSVFIFPPSDEQLKSGTASVVCLLNNFYPREAKVQWKVDNALQSGNSQESVTEQDSKDSTYSLSSTLTLSKADYEKHKVYACEVTHQGLSSPVTKSFNRGEC
heavy 2: QVQLVQSGAEVKKPGASVTVSCKASGYTFTDYEMHWIRQPPGEGLEWIGAIDGPTPDTAYSEKFKGRVTLTADKSTSTAYMELSSLTSEDTAVYYCTRFYSYTYWGQGTLVTVSSASTKGPSVFPLAPSSKSTSGGTAALGCLVKDYFPEPVTVSWNSGALTSGVHTFPAVLQSSGLYSLSSVVTVPSSSLGTQTYICNVNHKPSNTKVDKKVEPKSCDKTHTCPPCPAPELRGGPKVFLFPPKPKDTLMISRTPEVTCVVVDVSHEDPEVKFNWYVDGVEVHNAKTKPREEQYASTYRVVSVLTVLHQDWLNGKEYKCKVSNKALPAPIEKTISKAKGQPREPQVYTLPPSREEMTKNQVSLTCLVKGFYPSDIAVEWESNGQPENNYKTTPPYLDSDGSFFLYSKLTVDKSRWQQGNVFSCSVMHEALHNHYTQESLSLSP
light 2: DIVMTQSPLSLPVTPGEPASISCRSSQPLVHSNRNTYLHWYQQKPGQAPRLLIYKVSNRFSGVPDRFSGSGSGTDFTLKISRVEAEDVGVYYCGQGTQVPYTFGQGTKLEIKRTVAAPSVFIFPPSDEQLKSGTASVVCLLNNFYPREAKVQWKVDNALQSGNSQESVTEQDSKDSTYSLSSTLTLSKADYEKHKVYACEVTHQGLSSPVTKSFNRGEC
B1: the “increase rate due to the protease treatment (luciferase, uPA-treated / untreated), antibody 0.1 nM” value is 0.9 ratio and the “increase rate due to the protease treatment (luciferase, uPA-treated / untreated), antibody 1 nM” value was found to be 0.6 ratio.

B2: hCE115HAuPA20L/GLS//GCH065 (bispecific antibody, human IgG1, kappa, N297A)
heavy 1: QDGNEEMGGITQTPYKVSISGGGGSGGGGSGGGGSLSGRSDNHGGGSQVQLVESGGGVVQPGRSLRLSCAASGFTFSNAWMHWVRQAPGKGLEWVAQIKAKSNNYATYYAESVKGRFTISRDDSKNSLYLQMNSLKTEDTAVYYCRYVHYGAYYGVDAWGQGTTVTVSSASTKGPSVFPLAPSSKSTSGGTAALGCLVKDYFPEPVTVSWNSGALTSGVHTFPAVLQSSGLYSLSSVVTVPSSSLGTQTYICNVNHKPSNTKVDKKVEPKSCDKTHTCPPCPAPELRGGPKVFLFPPKPKDTLMISRTPEVTCVVVDVSHEDPEVKFNWYVDGVEVHNAKTKPREEQYASTYRVVSVLTVLHQDWLNGKEYKCKVSNKALPAPIEKTISKAKGQPREPQVYTLPPSRKEMTKNQVSLTCLVKGFYPSDIAVEWESNGQPENNYKTTPPYLDSDGSFFLYSKLTVDKSRWQQGNVFSCSVMHEALHNHYTQKSLSLSP
light 1: DIVMTQSPLSLPVTPGEPASISCRSSQSLVHSNRNTYLHWYQQKPGQAPRLLIYKVSNRFSGVPDRFSGSGSGTDFTLKISRVEAEDVGVYYCGQGTQVPYTFGQGTKLEIKRTVAAPSVFIFPPSDEQLKSGTASVVCLLNNFYPREAKVQWKVDNALQSGNSQESVTEQDSKDSTYSLSSTLTLSKADYEKHKVYACEVTHQGLSSPVTKSFNRGEC
heavy 2: QVQLVQSGAEVKKPGASVTVSCKASGYTFTDYEMHWIRQPPGEGLEWIGAIDGPTPDTAYSEKFKGRVTLTADKSTSTAYMELSSLTSEDTAVYYCTRFYSYTYWGQGTLVTVSSASTKGPSVFPLAPSSKSTSGGTAALGCLVKDYFPEPVTVSWNSGALTSGVHTFPAVLQSSGLYSLSSVVTVPSSSLGTQTYICNVNHKPSNTKVDKKVEPKSCDKTHTCPPCPAPELRGGPKVFLFPPKPKDTLMISRTPEVTCVVVDVSHEDPEVKFNWYVDGVEVHNAKTKPREEQYASTYRVVSVLTVLHQDWLNGKEYKCKVSNKALPAPIEKTISKAKGQPREPQVYTLPPSREEMTKNQVSLTCLVKGFYPSDIAVEWESNGQPENNYKTTPPYLDSDGSFFLYSKLTVDKSRWQQGNVFSCSVMHEALHNHYTQESLSLSP
light 2: DIVMTQSPLSLPVTPGEPASISCRSSQPLVHSNRNTYLHWYQQKPGQAPRLLIYKVSNRFSGVPDRFSGSGSGTDFTLKISRVEAEDVGVYYCGQGTQVPYTFGQGTKLEIKRTVAAPSVFIFPPSDEQLKSGTASVVCLLNNFYPREAKVQWKVDNALQSGNSQESVTEQDSKDSTYSLSSTLTLSKADYEKHKVYACEVTHQGLSSPVTKSFNRGEC
Regarding B2, the “increase rate due to the protease treatment (luciferase, uPA-treated / untreated), antibody 0.1 nM” value stood at 1.2 ratio and the “increase rate due to the protease treatment (luciferase, uPA-treated / untreated), antibody 1 nM” value is 2.4 ratio.

B3: rCE115/rCE115uPA04//GCH065 (bispecific antibody, human IgG1, kappa, N297A)
heavy 1: EVQLVETGGSLVQPGKSLKLTCATSGFTFSNAWMHWVRQSPEKQLEWVAQIKAKSNNYATYYAESVKGRFTISRDDSKSNIYLQMNSLKEEDTAVYYCRYVHYGAYYGVDAWGQGTSVTVSSASTKGPSVFPLAPSSKSTSGGTAALGCLVKDYFPEPVTVSWNSGALTSGVHTFPAVLQSSGLYSLSSVVTVPSSSLGTQTYICNVNHKPSNTKVDKKVEPKSCDKTHTCPPCPAPELRGGPKVFLFPPKPKDTLMISRTPEVTCVVVDVSHEDPEVKFNWYVDGVEVHNAKTKPREEQYASTYRVVSVLTVLHQDWLNGKEYKCKVSNKALPAPIEKTISKAKGQPREPQVYTLPPSRKEMTKNQVSLTCLVKGFYPSDIAVEWESNGQPENNYKTTPPYLDSDGSFFLYSKLTVDKSRWQQGNVFSCSVMHEALHNHYTQKSLSLSP
light 1: QDGNEEMGGGSGGGSGGGSLSGRSDNHGGGSDVVMTQTPVSMSVSLGGQVSISCRSSQSLVHNNGNTYVSWYIQKPSQSPQLLIYKVSNRFSGISDRFSGSGSGTDFTLKISRVEPDDLGVYYCGQGTQDPYTFGAGTKLELKRTVAAPSVFIFPPSDEQLKSGTASVVCLLNNFYPREAKVQWKVDNALQSGNSQESVTEQDSKDSTYSLSSTLTLSKADYEKHKVYACEVTHQGLSSPVTKSFNRGEC
heavy 2: QVQLVQSGAEVKKPGASVTVSCKASGYTFTDYEMHWIRQPPGEGLEWIGAIDGPTPDTAYSEKFKGRVTLTADKSTSTAYMELSSLTSEDTAVYYCTRFYSYTYWGQGTLVTVSSASTKGPSVFPLAPSSKSTSGGTAALGCLVKDYFPEPVTVSWNSGALTSGVHTFPAVLQSSGLYSLSSVVTVPSSSLGTQTYICNVNHKPSNTKVDKKVEPKSCDKTHTCPPCPAPELRGGPKVFLFPPKPKDTLMISRTPEVTCVVVDVSHEDPEVKFNWYVDGVEVHNAKTKPREEQYASTYRVVSVLTVLHQDWLNGKEYKCKVSNKALPAPIEKTISKAKGQPREPQVYTLPPSREEMTKNQVSLTCLVKGFYPSDIAVEWESNGQPENNYKTTPPYLDSDGSFFLYSKLTVDKSRWQQGNVFSCSVMHEALHNHYTQESLSLSP
light 2: DIVMTQSPLSLPVTPGEPASISCRSSQPLVHSNRNTYLHWYQQKPGQAPRLLIYKVSNRFSGVPDRFSGSGSGTDFTLKISRVEAEDVGVYYCGQGTQVPYTFGQGTKLEIKRTVAAPSVFIFPPSDEQLKSGTASVVCLLNNFYPREAKVQWKVDNALQSGNSQESVTEQDSKDSTYSLSSTLTLSKADYEKHKVYACEVTHQGLSSPVTKSFNRGEC
In the case of B3, the “increase rate due to the protease treatment (luciferase, uPA-treated / untreated), antibody 0.1 nM” value was 2.7 ratio and the “increase rate due to the protease treatment (luciferase, uPA-treated / untreated), antibody 1 nM” value is 3.8 ratio.

B4: rCE115/rCE115//GCH065 (bispecific antibody, human IgG1, kappa, N297A)
heavy 1: EVQLVETGGSLVQPGKSLKLTCATSGFTFSNAWMHWVRQSPEKQLEWVAQIKAKSNNYATYYAESVKGRFTISRDDSKSNIYLQMNSLKEEDTAVYYCRYVHYGAYYGVDAWGQGTSVTVSSASTKGPSVFPLAPSSKSTSGGTAALGCLVKDYFPEPVTVSWNSGALTSGVHTFPAVLQSSGLYSLSSVVTVPSSSLGTQTYICNVNHKPSNTKVDKKVEPKSCDKTHTCPPCPAPELRGGPKVFLFPPKPKDTLMISRTPEVTCVVVDVSHEDPEVKFNWYVDGVEVHNAKTKPREEQYASTYRVVSVLTVLHQDWLNGKEYKCKVSNKALPAPIEKTISKAKGQPREPQVYTLPPSRKEMTKNQVSLTCLVKGFYPSDIAVEWESNGQPENNYKTTPPYLDSDGSFFLYSKLTVDKSRWQQGNVFSCSVMHEALHNHYTQKSLSLSP
light 1: DVVMTQTPVSMSVSLGGQVSISCRSSQSLVHNNGNTYVSWYIQKPSQSPQLLIYKVSNRFSGISDRFSGSGSGTDFTLKISRVEPDDLGVYYCGQGTQDPYTFGAGTKLELKRTVAAPSVFIFPPSDEQLKSGTASVVCLLNNFYPREAKVQWKVDNALQSGNSQESVTEQDSKDSTYSLSSTLTLSKADYEKHKVYACEVTHQGLSSPVTKSFNRGEC
heavy 2: QVQLVQSGAEVKKPGASVTVSCKASGYTFTDYEMHWIRQPPGEGLEWIGAIDGPTPDTAYSEKFKGRVTLTADKSTSTAYMELSSLTSEDTAVYYCTRFYSYTYWGQGTLVTVSSASTKGPSVFPLAPSSKSTSGGTAALGCLVKDYFPEPVTVSWNSGALTSGVHTFPAVLQSSGLYSLSSVVTVPSSSLGTQTYICNVNHKPSNTKVDKKVEPKSCDKTHTCPPCPAPELRGGPKVFLFPPKPKDTLMISRTPEVTCVVVDVSHEDPEVKFNWYVDGVEVHNAKTKPREEQYASTYRVVSVLTVLHQDWLNGKEYKCKVSNKALPAPIEKTISKAKGQPREPQVYTLPPSREEMTKNQVSLTCLVKGFYPSDIAVEWESNGQPENNYKTTPPYLDSDGSFFLYSKLTVDKSRWQQGNVFSCSVMHEALHNHYTQESLSLSP
light 2: DIVMTQSPLSLPVTPGEPASISCRSSQPLVHSNRNTYLHWYQQKPGQAPRLLIYKVSNRFSGVPDRFSGSGSGTDFTLKISRVEAEDVGVYYCGQGTQVPYTFGQGTKLEIKRTVAAPSVFIFPPSDEQLKSGTASVVCLLNNFYPREAKVQWKVDNALQSGNSQESVTEQDSKDSTYSLSSTLTLSKADYEKHKVYACEVTHQGLSSPVTKSFNRGEC
As for B4, the “increase rate due to the protease treatment (luciferase, uPA-treated / untreated), antibody 0.1 nM” value is 0.7 ratio and the “increase rate due to the protease treatment (luciferase, uPA-treated / untreated), antibody 1 nM” value is 0.9 ratio.
